What was measured:
Test in all cases: SPR
Details in all cases: scFv
[1] = molecular target: H5VN04 (influenza A virus H5VN04 (H5N1))
[2] = molecular target: H5 (influenza A virus H5VN04 (H5N1))
[3] = molecular target: H5 (influenza A virus H5VN04 (H5N1)); remark: listed apart in the source
[4] = molecular target: H5 (influenza A virus H5VN04 (H5N1)); remark: listed apart in the source

Substance	Kd [1]	Kd [2]	Kd [3]	Kd [4]
CR6261 wt	0.34 nM			
F10		1.2 nM	270 nM	0.1 nM
F10 wt	0.1 nM			

Reference: US20220135655A1
